Data reported in patent publication US20200262917A1 (Daiichi Sankyo, published 2020).

Target: T1, human LAG-3 (full length, expressed on cells) (human, UniProt P18627 23-525)
T1 construct: also called CD223; hLAG-3
T1 sequence: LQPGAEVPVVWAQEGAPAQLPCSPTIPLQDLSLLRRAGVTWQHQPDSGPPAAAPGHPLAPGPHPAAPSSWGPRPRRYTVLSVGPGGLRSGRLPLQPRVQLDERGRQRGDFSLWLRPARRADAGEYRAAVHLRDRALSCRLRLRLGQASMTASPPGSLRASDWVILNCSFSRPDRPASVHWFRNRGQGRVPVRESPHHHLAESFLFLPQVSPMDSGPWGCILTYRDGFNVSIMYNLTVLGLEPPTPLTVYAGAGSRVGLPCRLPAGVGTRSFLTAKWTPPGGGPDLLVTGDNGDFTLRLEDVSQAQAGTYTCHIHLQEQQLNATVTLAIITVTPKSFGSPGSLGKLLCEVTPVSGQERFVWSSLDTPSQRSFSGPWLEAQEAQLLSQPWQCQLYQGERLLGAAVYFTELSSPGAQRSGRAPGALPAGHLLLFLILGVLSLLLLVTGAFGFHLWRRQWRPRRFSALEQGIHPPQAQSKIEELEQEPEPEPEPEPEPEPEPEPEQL
Assay: flow cytometry on human LAG-3-expressing 293T-lacZ cells
Experimental: The flow cytometry was performed according to the method described in Example 1)-4, but an Anti-Human IgG PE conjugate (manufactured by Jackson ImmunoResearch Laboratories, Inc.) diluted 200-fold with a FACS buffer was used as the secondary antibody.

- binding result: binds
B1: humanized anti-human LAG-3 antibody hLA212_H4/L2 (antibody, human IgG1, kappa, V domains shown)
VH: EVQLVESGGGLVQPGGSLRLSCAASGFTYRSYVMAWVRQAPGKGLEWVASISTGGGNTYYRDSVKGRFTISRDNAKNTLYLQMDSLRAEDTAVYYCAEDMSNSGYGLFDYWGQGTLVTVSS
VL: DIQMTQSPSSLSASVGDRVTITCKAGQNVDNNIAWYQQKPGQSPKLLIYYASNRNTGVPSRFSGSGYGTDFTLTISSLQPEDFATYYCQRISNSPYTFGQGTKVEIKR
modifications: defucosylated (sugar chain modification adjusted); peaks of fucose-containing H chain at or below the detection limit in mass spectrometry
notes: defucosylated form (human IgG1/kappa); also called hLA212 antibody H4/L2; low fucose form of hLA212_H3/L2
